The values below come from patent EP4658690A2 (dated 2025).

This experiment has as its target T1, human CD180/MD-1 on HEK293 cells (human, UniProt Q99467 24-661; O95711 21-162).
T1 construct: whole, on cells; CD180 co-expressed with MD-1 on engineered HEK293 cells; also called HEK293 CD180/MD-1 cells; CD180/MD1 HEK293 cells
T1 sequence (looked up) 1: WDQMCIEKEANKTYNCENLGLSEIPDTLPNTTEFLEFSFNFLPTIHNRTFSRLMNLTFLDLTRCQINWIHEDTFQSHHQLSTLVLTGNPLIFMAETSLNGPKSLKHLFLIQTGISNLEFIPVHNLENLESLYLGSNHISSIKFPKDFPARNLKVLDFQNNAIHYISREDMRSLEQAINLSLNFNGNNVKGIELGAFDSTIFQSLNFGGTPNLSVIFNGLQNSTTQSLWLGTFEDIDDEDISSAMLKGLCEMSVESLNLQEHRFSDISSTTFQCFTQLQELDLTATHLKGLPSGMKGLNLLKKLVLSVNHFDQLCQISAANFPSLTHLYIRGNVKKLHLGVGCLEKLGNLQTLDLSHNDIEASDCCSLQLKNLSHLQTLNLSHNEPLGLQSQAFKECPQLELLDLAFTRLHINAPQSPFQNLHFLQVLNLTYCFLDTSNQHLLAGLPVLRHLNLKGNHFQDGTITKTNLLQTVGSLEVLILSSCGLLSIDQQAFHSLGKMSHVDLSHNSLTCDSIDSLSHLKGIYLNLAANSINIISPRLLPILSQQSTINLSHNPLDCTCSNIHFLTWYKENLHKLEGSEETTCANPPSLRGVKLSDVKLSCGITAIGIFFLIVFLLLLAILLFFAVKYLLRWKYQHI
T1 sequence (looked up) 2: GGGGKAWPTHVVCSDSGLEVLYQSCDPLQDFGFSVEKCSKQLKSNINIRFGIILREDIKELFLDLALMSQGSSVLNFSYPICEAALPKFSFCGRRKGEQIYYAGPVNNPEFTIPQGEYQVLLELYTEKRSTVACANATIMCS
The experiment in a line: flow cytometry (called cell-based ELISA) on HEK293 CD180/MD-1 cells, MFI fitted to a 4-parameter curve.

B1: CHAMPmAb-014 (antibody, V domains shown)
VH: EVQLVESGGGLVQPGRSLRLSCTTSGFTFADYAMHWVRQTPGQGLEWVSGISWNGGTMGYADSVKGRFTISRDIAKNSLYLQMNSLRAEDTALYYCAKDIAYSRGYFQHWGQGTLVTVSS
VL: not shown
Molecule B1 gave an EC50 of 4 nM.
